The values that follow are results of earlier work, collected in article PMC4954776.

The Kd is the free concentration of one partner at which half of the binding sites on the other are occupied at equilibrium, for simple one-to-one binding.

The data set has as its target BRAF kinase domain 448-723 (Homo sapiens) (UniProt P15056). Description: sedimentation equilibrium.

BRAF kinase domain 448-723, sequence (P15056 448-723): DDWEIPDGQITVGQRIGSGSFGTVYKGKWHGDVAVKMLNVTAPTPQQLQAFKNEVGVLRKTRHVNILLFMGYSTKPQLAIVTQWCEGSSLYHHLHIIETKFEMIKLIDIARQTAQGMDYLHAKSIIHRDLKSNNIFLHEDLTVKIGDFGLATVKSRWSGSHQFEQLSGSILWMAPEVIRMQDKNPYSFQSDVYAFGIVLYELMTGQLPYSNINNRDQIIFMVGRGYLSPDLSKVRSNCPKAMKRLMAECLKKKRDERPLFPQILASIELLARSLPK

On to “BRAF kinase domain 448-723 (from UniProt P15056)”, for which the Kd is less than 6.25 µM.
